IC50(µM), plaque assay, infection of MDCK cells data for 14 substances are collected here from patent US20100119588A1.

A value given as a limit tells only on which side of the number the result lay.

The first test addresses hemagglutinin H3 on influenza virus A/Aichi/2/68 strain (H3N2) (influenza virus A/Aichi/2/68 (H3N2)) (UniProt P03437). Description: cell-based or functional assay.
With C18-s2(1-2) (C18-AR peptide amide), the IC50(µM), plaque assay, infection of MDCK cells was over 100 µM.

As for “C18-s2(5-11) (C18-RTMVHPK peptide amide)”, the IC50(µM), plaque assay, infection of MDCK cells was over 100 µM.

With C18-s2(1-5) (C18-ARLPR peptide amide), the IC50(µM), plaque assay, infection of MDCK cells turned out to be 3 µM.

The substance C18-s2(1-4)P4A (C18-ARLA peptide amide) returned an IC50(µM), plaque assay, infection of MDCK cells of over 100 µM.

Take C18-s2(1-4) (C18-ARLP peptide amide): the IC50(µM), plaque assay, infection of MDCK cells came to 21 µM.

Substance C18-s2(2-8) (C18-RLPRTMV peptide amide) returned an IC50(µM), plaque assay, infection of MDCK cells of over 100 µM.

Take C18-s2(1-7) (C18-ARLPRTM peptide amide): the IC50(µM), plaque assay, infection of MDCK cells turned out to be 9.1 µM.

With “C18-s2(r1-8) (C18-VMTRPLRA peptide amide)”, the IC50(µM), plaque assay, infection of MDCK cells was 226 µM.

In turn, C18-s2(1-3) (C18-ARL peptide amide) showed an IC50(µM), plaque assay, infection of MDCK cells of over 100 µM.

Substance C18-s2(1-6) (C18-ARLPRT peptide amide) yielded an IC50(µM), plaque assay, infection of MDCK cells of 5 µM.

In the case of “C18-s2(8-15) (C18-VHPKPAQP peptide amide)”, the IC50(µM), plaque assay, infection of MDCK cells turned out to be 10.5 µM.

The target is the same in the next test. Description: cell-based or functional assay. This is another data set of the same source.
For the substance C18-s2(1-5) (C18-ARLPR peptide amide), the IC50(µM), plaque assay, infection of MDCK cells is 1.55 µM.

Take “C18-s2(1-8) (C18-ARLPRTMV peptide amide)”: the IC50(µM), plaque assay, infection of MDCK cells is 1.4 µM.

The substance C18-s2(r1-4) (C18-PLRA peptide amide) had an IC50(µM), plaque assay, infection of MDCK cells of 14 µM.

Substance C18-s2(r1-5) (C18-RPLRA peptide amide) came in with an IC50(µM), plaque assay, infection of MDCK cells of 0.94 µM.
